The source of these data is paper PMC5332438.

Common to all, as to test: co-IP
In assay [1] the target is human mitochondrial adenine nucleotide translocator, C-terminal c-Myc-DDK tag (human) (UniProt P12235).
Assay [2] concerns the target human translocase of outer mitochondrial membrane 22 homolog, C-terminal c-Myc and DDK tags (human) (UniProt Q9NS69).
In assay [3] the target is Full length human BKCa alpha-subunit starting from Met1, 3xHA-tagged, with DEC splice insert (human).
For assay [4], the target named is Full length human BKCa alpha-subunit starting from Met1, 3xHA-tagged, without DEC (human).
In assay [5] the target is human BKCa alpha-subunit starting from Met3, untagged (human).
human BKCa alpha-subunit starting from Met3, untagged (human), sequence (Q12791 whole entry): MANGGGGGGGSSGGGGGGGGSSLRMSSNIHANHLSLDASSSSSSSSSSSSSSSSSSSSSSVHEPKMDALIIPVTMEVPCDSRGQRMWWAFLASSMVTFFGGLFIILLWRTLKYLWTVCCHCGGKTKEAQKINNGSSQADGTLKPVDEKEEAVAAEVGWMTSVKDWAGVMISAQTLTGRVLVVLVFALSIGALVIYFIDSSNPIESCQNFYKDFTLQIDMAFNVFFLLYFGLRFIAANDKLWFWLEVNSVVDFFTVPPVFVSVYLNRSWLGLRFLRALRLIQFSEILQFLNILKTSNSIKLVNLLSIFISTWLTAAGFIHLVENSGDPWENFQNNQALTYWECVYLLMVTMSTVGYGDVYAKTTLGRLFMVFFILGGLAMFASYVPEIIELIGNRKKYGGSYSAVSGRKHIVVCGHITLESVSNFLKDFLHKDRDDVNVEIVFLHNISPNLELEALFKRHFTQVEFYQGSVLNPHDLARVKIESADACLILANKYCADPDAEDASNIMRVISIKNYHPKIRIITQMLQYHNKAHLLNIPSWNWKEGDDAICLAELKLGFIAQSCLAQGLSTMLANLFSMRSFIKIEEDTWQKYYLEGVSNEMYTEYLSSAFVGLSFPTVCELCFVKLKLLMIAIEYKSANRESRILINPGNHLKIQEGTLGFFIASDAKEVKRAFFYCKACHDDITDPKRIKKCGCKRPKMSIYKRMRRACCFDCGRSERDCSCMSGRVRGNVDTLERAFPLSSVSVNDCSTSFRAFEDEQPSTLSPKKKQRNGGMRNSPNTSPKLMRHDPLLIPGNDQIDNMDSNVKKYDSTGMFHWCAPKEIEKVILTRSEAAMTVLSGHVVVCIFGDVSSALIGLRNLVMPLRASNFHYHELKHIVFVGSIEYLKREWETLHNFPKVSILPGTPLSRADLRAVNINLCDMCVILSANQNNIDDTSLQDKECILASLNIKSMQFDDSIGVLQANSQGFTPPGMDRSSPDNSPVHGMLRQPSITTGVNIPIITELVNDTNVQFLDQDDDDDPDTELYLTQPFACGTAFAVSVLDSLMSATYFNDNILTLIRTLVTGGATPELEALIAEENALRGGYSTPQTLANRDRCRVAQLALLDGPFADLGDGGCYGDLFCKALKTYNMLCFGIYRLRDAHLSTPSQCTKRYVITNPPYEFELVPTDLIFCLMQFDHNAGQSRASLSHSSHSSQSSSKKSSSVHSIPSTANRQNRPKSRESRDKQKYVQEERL

Full length human BKCa alpha-subunit starting from Met1, 3xHA-tagged, without DEC (human), sequence (Q12791 whole entry): as above
Full length human BKCa alpha-subunit starting from Met1, 3xHA-tagged, with DEC splice insert (human), sequence (Q12791 whole entry, canonical isoform): as the sequence (Q12791 whole entry) above

Consider “c-Myc-BKCa 322-1113 (domain or fragment)”, for which the Co-IP efficiency (compared to wild-type BKCa) in assay [1] was found to be 0.17. In addition, the Co-IP efficiency (wild-type BKCa = 1) in assay [2] came to 0.33.
Molecule c-Myc-BKCa 1-711 (domain or fragment) returned a Co-IP efficiency (compared to wild-type BKCa) in assay [1] of 0.91.
In assay [1], “c-Myc-BKCa 679-1113 (domain or fragment)” yielded a Co-IP efficiency (compared to wild-type BKCa) of 0.33. This molecule also returned a Co-IP efficiency (wild-type BKCa = 1) in assay [2] of 0.42.

B1: human translocase of outer mitochondrial membrane 22 homolog, C-terminal c-Myc and DDK tags (natural protein)
chain: MAAAVAAAGAGEPQSPDELLPKGDAEKPEEELEEDDDEELDETLSERLWGLTEMFPERVRSAAGATFDLSLFVAQKMYRFSRAALWIGTTSFMILVLPVVFETEKLQMEQQQQLQQRQILLGPNTGLSGGMPGALPSLPGKI
For the molecule B1, the Co-IP efficiency in assay [3] is 0.91; in assay [4], 0.89.

B2: human mitochondrial adenine nucleotide translocator, C-terminal c-Myc-DDK tag (natural protein)
chain: MGDHAWSFLKDFLAGGVAAAVSKTAVAPIERVKLLLQVQHASKQISAEKQYKGIIDCVVRIPKEQGFLSFWRGNLANVIRYFPTQALNFAFKDKYKQLFLGGVDRHKQFWRYFAGNLASGGAAGATSLCFVYPLDFARTRLAADVGKGAAQREFHGLGDCIIKIFKSDGLRGLYQGFNVSVQGIIIYRAAYFGVYDTAKGMLPDPKNVHIFVSWMIAQSVTAVAGLVSYPFDTVRRRMMMQSGRKGADIMYTGTVDCWRKIAKDEGAKAFFKGAWSNVLRGMGGAFVLVLYDEIKKYV
Turning to B2, the Co-IP efficiency (BKCa-DEC = 1) in assay [5] came out at 0.69.
